Reference: IntAct's records for PubMed 11283256

B1: Serine/threonine-protein kinase MRCK alpha (Homo sapiens), Q5VT25 (parent)
chain: MSGEVRLRQLEQFILDGPAQTNGQCFSVETLLDILICLYDECNNSPLRREKNILEYLEWAKPFTSKVKQMRLHREDFEILKVIGRGAFGEVAVVKLKNADKVFAMKILNKWEMLKRAETACFREERDVLVNGDNKWITTLHYAFQDDNNLYLVMDYYVGGDLLTLLSKFEDRLPEDMARFYLAEMVIAIDSVHQLHYVHRDIKPDNILMDMNGHIRLADFGSCLKLMEDGTVQSSVAVGTPDYISPEILQAMEDGKGRYGPECDWWSLGVCMYEMLYGETPFYAESLVETYGKIMNHKERFQFPAQVTDVSENAKDLIRRLICSREHRLGQNGIEDFKKHPFFSGIDWDNIRNCEAPYIPEVSSPTDTSNFDVDDDCLKNSETMPPPTHTAFSGHHLPFVGFTYTSSCVLSDRSCLRVTAGPTSLDLDVNVQRTLDNNLATEAYERRIKRLEQEKLELSRKLQESTQTVQALQYSTVDGPLTASKDLEIKNLKEEIEKLRKQVTESSHLEQQLEEANAVRQELDDAFRQIKAYEKQIKTLQQEREDLNKELVQASERLKNQSKELKDAHCQRKLAMQEFMEINERLTELHTQKQKLARHVRDKEEEVDLVMQKVESLRQELRRTERAKKELEVHTEALAAEASKDRKLREQSEHYSKQLENELEGLKQKQISYSPGVCSIEHQQEITKLKTDLEKKSIFYEEELSKREGIHANEIKNLKKELHDSEGQQLALNKEIMILKDKLEKTRRESQSEREEFESEFKQQYEREKVLLTEENKKLTSELDKLTTLYENLSIHNQQLEEEVKDLADKKESVAHWEAQITEIIQWVSDEKDARGYLQALASKMTEELEALRNSSLGTRATDMPWKMRRFAKLDMSARLELQSALDAEIRAKQAIQEELNKVKASNIITECKLKDSEKKNLELLSEIEQLIKDTEELRSEKGIEHQDSQHSFLAFLNTPTDALDQFERSPSCTPASKGRRTVDSTPLSVHTPTLRKKGCPGSTGFPPKRKTHQFFVKSFTTPTKCHQCTSLMVGLIRQGCSCEVCGFSCHITCVNKAPTTCPVPPEQTKGPLGIDPQKGIGTAYEGHVRIPKPAGVKKGWQRALAIVCDFKLFLYDIAEGKASQPSVVISQVIDMRDEEFSVSSVLASDVIHASRKDIPCIFRVTASQLSASNNKCSILMLADTENEKNKWVGVLSELHKILKKNKFRDRSVYVPKEAYDSTLPLIKTTQAAAIIDHERIALGNEEGLFVVHVTKDEIIRVGDNKKIHQIELIPNDQLVAVISGRNRHVRLFPMSALDGRETDFYKLSETKGCQTVTSGKVRHGALTCLCVAMKRQVLCYELFQSKTRHRKFKEIQVPYNVQWMAIFSEQLCVGFQSGFLRYPLNGEGNPYSMLHSNDHTLSFIAHQPMDAICAVEISSKEYLLCFNSIGIYTDCQGRRSRQQELMWPANPSSCCYNAPYLSVYSENAVDIFDVNSMEWIQTLPLKKVRPLNNEGSLNLLGLETIRLIYFKNKMAEGDELVVPETSDNSRKQMVRNINNKRRYSFRVPEEERMQQRREMLRDPEMRNKLISNPTNFNHIAHMGPGDGIQILKDLPMNPRPQESRTVFSGSVSIPSITKSRPEPGRSMSASSGLSARSSAQNGSALKREFSGGSYSAKRQPMPSPSEGSLSSGGMDQGSDAPARDFDGEDSDSPRHSTASNSSNLSSPPSPASPRKTKSLSLESTDRGSWDP
partner: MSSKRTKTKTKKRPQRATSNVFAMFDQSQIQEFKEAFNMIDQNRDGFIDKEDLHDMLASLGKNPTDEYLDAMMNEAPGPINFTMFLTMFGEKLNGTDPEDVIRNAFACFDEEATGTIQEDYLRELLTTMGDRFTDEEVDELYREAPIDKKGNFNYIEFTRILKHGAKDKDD

Variants of: B1
Details: with ml12a_human MYL12A

Variant | effect of a mutation on the interaction
S234A | decreasing interaction
K106A | decreasing interaction

Second part, the variant after the results:

effect of a mutation on the interaction | Variant
decreasing interaction | T403A
decreasing interaction | T240A
